The record followed here is PMC10126157, “High concentrations of soluble endoglin can inhibit BMP9 signaling in non-endothelial cells” (Scientific Reports, 2023).

The assay concerns the target T1, sENG-Fc (soluble endoglin Fc fusion) (human, UniProt P17813 26-586).
T1 construct: soluble endoglin (ENG, CD105) fused to Fc, recombinant human protein from R&D Systems; Construct limits are known only through the catalogue number; source: bought: R&D Systems (Cat.# 6578-EN), recombinant human protein
T1 sequence (looked up): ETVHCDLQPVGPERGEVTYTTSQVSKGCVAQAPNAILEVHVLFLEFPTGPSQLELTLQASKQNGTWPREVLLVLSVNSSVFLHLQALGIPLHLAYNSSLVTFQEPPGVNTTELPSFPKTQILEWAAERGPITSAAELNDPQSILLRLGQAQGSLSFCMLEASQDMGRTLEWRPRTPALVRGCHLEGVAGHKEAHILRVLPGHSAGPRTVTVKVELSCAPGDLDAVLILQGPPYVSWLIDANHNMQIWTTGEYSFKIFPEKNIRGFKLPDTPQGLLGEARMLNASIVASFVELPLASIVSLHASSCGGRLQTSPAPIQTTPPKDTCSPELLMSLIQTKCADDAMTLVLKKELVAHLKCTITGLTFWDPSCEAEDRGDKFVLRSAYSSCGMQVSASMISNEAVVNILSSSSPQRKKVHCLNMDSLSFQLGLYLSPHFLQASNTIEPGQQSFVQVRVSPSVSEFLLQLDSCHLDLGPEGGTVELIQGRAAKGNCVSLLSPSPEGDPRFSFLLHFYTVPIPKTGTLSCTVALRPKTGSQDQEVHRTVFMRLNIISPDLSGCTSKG
The experiment in a line: ELISA; ActRIIA-Fc coated on MaxiSorp plates (1 ug/mL in PBS, overnight, 4 °C), blocked with 1% BSA; BMP9 (15 ng/mL) added with increasing concentrations of sENG(M), sENG(D) or sENG-Fc; bound BMP9 detected with BMP-9 DuoSet ELISA reagents. The note with it: both partners purified.

B1: Bone morphogenetic protein 9 (BMP9) (ligand, human, UniProt Q9UK05 320-429, looked up)
chain: SAGAGSHCQKTSLRVNFEDIGWDSWIIAPKEYEAYECKGGCFFPLADDVTPTKHAIVQTLVHLKFPTKVGKACCVPTKLSPISVLYKDDMGVPTLKYHYEGMSVAECGCR
notes: BMP9 (GDF2), recombinant human protein from R&D Systems; source: bought: R&D Systems (Cat.# 3209-BP), recombinant human protein
Take B1: the binding result is on record as “binds”.
